From PMC3367199 come the findings set out here.

Holding throughout (assay): EMSA
The target in data set [1] is T1, rCRR22 (UniProt Q3E6Q1 47-809).
T1 sequence: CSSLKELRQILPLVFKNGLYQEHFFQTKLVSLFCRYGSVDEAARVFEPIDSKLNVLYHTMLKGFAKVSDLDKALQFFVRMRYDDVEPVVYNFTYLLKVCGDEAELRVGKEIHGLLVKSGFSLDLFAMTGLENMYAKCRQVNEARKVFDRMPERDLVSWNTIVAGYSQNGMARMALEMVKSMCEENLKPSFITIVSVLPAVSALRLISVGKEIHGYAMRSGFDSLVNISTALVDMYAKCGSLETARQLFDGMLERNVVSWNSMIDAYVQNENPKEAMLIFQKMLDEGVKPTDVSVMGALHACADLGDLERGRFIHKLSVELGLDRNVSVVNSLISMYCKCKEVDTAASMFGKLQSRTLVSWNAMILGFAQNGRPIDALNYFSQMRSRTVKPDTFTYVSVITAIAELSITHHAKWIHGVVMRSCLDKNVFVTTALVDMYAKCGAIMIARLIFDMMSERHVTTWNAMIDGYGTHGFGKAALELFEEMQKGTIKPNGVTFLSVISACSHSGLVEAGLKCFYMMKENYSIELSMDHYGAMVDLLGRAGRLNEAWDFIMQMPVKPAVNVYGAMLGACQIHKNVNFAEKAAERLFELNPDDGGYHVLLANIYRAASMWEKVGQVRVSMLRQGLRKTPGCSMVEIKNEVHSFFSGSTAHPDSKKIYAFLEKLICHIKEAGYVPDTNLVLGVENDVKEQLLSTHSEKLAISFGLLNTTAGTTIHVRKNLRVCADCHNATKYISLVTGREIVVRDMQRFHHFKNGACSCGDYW

Data set [2] concerns the target T2, rOTP82 (UniProt Q9LN01 41-741).
Data set [3] addresses T2, rOTP82. The source holds these as a separate data set.
The target of data set [4] is T1, rCRR22. The source holds these as a separate data set.

Like-named read-outs stand apart in the source and are kept apart here.

T2 sequence (Q9LN01 41-741): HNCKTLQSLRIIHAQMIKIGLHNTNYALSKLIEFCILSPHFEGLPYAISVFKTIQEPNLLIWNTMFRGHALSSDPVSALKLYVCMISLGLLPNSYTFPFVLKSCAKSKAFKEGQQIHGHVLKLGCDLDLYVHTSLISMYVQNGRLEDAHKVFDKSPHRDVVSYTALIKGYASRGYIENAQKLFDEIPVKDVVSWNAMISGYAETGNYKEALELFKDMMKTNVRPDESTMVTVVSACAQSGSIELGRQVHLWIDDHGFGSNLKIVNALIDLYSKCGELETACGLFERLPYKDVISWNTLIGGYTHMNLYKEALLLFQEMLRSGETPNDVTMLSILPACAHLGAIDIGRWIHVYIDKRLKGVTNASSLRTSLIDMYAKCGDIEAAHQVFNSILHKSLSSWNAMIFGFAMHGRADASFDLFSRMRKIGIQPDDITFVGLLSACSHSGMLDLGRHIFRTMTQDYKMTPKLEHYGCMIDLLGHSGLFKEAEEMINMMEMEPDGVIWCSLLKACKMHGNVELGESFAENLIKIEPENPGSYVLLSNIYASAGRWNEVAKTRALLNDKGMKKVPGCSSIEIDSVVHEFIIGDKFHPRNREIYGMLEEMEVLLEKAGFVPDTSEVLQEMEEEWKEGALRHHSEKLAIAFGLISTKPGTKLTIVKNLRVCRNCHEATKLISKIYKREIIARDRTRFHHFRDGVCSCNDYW

As to GACCUGGUGUAUCUUGUCUUUACCACGAAUGAUUUU (ssRNA) [ndhD1], the binding result in data set [1] and in data set [2] was “no binding” in each case.

UAGUUUUUCUGGGAUC (ssRNA) [ndhG1S]: the affinity in data set [3], expressed as Kd, was 12.2 nM.

With CAAGCUUUCCCUAGCCCCUUC (ssRNA) [ndhB7S], in data set [4], the Kd worked out at 9.2 nM.

In the case of GCUUUCCCUAGCCCCUUC (ssRNA) [ndhB7S2], binding in data set [4] was put at a Kd of 70 nM.

B1: ndhD5L (ssRNA)
RNA: GUCGGUACAAUCCAAAUAAUUUAUGCAGCUUCAACAUCUCCCGGUCAACGU
Regarding B1, the binding result in data set [4] is listed as “binds”.

B2: rpoB3L (ssRNA)
RNA: GGUUCAAGUUAUAACCCAGAAAUAAUUCGUGUAUAUAUUUCACAGAAACGU
In the case of B2, the binding result in data set [4] is given as “binds”.

On to UGCAGCUUCAACAUCUCC (ssRNA) [ndhD5S2], for which the Kd in data set [4] was found to be 96.2 nM.

B3: ndhB9L (ssRNA)
RNA: GCUUUUCUUUCUGUUACUUCGAAAGUAGCUGCUUCAGCUUCAGCCACUCGA
Consider B3, for which the binding result in data set [3] is given as “binds”.

Take GCAAUGUACAGCGGUCAAAUAGGAUCAUUUUCUUCU (ssRNA) [ndhD2]: the binding result in data set [2] was “no binding”.

B4: ndhB7L (ssRNA)
RNA: AUCACUGUAGGAAUUGGGUUCAAGCUUUCCCUAGCCCCUUCUCAUCAAUGG
Consider B4, for which the binding result in data set [4] is “binds”.

Regarding AAUUCGUGUAUAUAUUUC (ssRNA) [rpoB3S2], in data set [4], binding was put at a Kd of 18.9 ± 3.1 nM.

As for UUAUGCAGCUUCAACAUCUCC (ssRNA) [ndhD5S], the Kd in data set [4] amounted to 10.8 nM.

Turning to UAGCUGCUUCAGCUUC (ssRNA) [ndhB9S], the affinity in data set [3], expressed as Kd, was 9.7 nM.

Take CUGCUUCAGCUUC (ssRNA) [ndhB9S2]: in data set [3], the Kd stood at 119 nM.

For the molecule UUUUUCUGGGAUC (ssRNA) [ndhG1S2], the affinity in data set [3], expressed as Kd, was 167 nM.

B5: ndhG1L (ssRNA)
RNA: CCUGGACCAAUACAUGAUUUUCUUUUAGUUUUUCUGGGAUCCGGUCUUCUA
In the case of B5, in data set [3], the binding result is “binds”.

In the case of UAACUGUCCUAGCUCUACCG (ssRNA) [ycf1], in data set [1], the binding result is recorded as “no binding”.

Turning to AAUAAUUCGUGUAUAUAUUUC (ssRNA) [rpoB3S], the dissociation constant (Kd) in data set [4] worked out at 13.5 ± 2.5 nM.
